Measurements: paper PMC10950897, “VCF1 is a p97/VCP cofactor promoting recognition of ubiquitylated p97-UFD1-NPL4 substrates” (Nature Communications, 2024)

What was measured:
[1] = system: Ub(G76V)-GFP, U2OS cells; test: QIBC of Ub(G76V)-GFP in cells overexpressing FLAG-tagged proteins; type: cell-based, human; settings: FLAG-tagged plasmids, FLAG-positive cells
Method: U2OS (catalog no. HTB-96) cells were obtained from ATCC. HEK293-EBNA1-6E cells were a kind gift from Yves Durocher (National Research Council Canada, Montreal, Canada). All mammalian cell lines were cultured under standard conditions at 37 °C and 5% CO2 in DMEM (Thermo) supplemented with 10% FBS (v/v) and penicillin-streptomycin (Thermo). Recombination cloning-compatible U2OS cells were generated using the Flp-In T-Rex Core Kit (Thermo) according to the manufacturer’s instructions and maintained under selection using Blasticidin (Invivogen) and Zeocin (Thermo). To generate cell lines stably expressing GFP-VCF1, U2OS Flp-In T-Rex cells (Thermo) were co-transfected with GFP-VCF1 constructs and pOG44 (Thermo) plasmids, followed by selection with Hygromycin (Invitrogen). Single clones were carefully screened for uniform expression of ectopic GFP-VCF1 at low levels and maintained under selection with Blasticidin and Hygromycin. To induce GFP-VCF1 expression, cells were treated with Doxycycline (DOX) (0.5 µg/ml) for 16 h. U2OS cell lines stably expressing Ub(G76V)-GFP or Ub(G76V)-GFP-20AA were described previously. A U2OS cell line stably expressing Ub(G76V)-GFP-NES was generated under G418 (Invivogen) selection. […]
Mammalian cells grown on coverslips were fixed in formalin buffer (VWR) for 15 min at room temperature (RT). […] Quantitative image-based cytometry (QIBC) was performed as described. […]

[2] = system: p97 ATPase; test: ATPase assay; type: biochemical, human; settings: p97 25 nM; for relative ATPase activity: ATP 375 μM
Method: For ATPase assays, 1 ml of 5x assay buffer (250 mM Tris, pH 7.4; 100 mM MgCl2; 5 mM EDTA) was mixed with 3 ml water, 5 μl 0.5 M TCEP and 5 μl 10% Triton X. To 40 ul of this assay buffer, recombinant proteins were added, mixed and incubated for 30 min. Final protein concentrations were as follows: p97 (25 nM), VCF1 (range of 0, 0.025, 1, 10 and 25 nM). The reactions were started by adding 10 μl ATP (final concentration of 375 μM) to the 40 μl reactions in a 96 well plate. After 35 min at room temperature, reactions were stopped by adding 50 μl BIOMOL Green reagent (Enzo Life Sciences). Absorbance at 635 nm was measured after 4 min and the relative ATPase activity calculated. Reactions were performed in duplicates and repeated three times.

How did the “effect of overexpression on Ub(G76V)-GFP” value [1] turn out when “VCF1: human FAM104A isoform 1, 186 amino acids (UniProt Q969W3); recombinant Strep-HA-tagged” was run?
Its value is “stabilized Ub(G76V)-GFP similar to the effect of elevating NPL4 or p47 expression levels”.

What about the “relative ATPase activity” value ([2]; 0.025 nM, replicate 1) of the same substance?
The value was 0.985.

And the “relative ATPase activity” value ([2]; 0.025 nM, replicate 2)?
The value was 0.875.

What about the “relative ATPase activity” value ([2]; 0.025 nM, replicate 3) of the same substance?
The value was 1.031.

What about the “relative ATPase activity” value ([2]; 1 nM, replicate 1) of the same substance?
Its value is 1.071.

What about the “relative ATPase activity” value ([2]; 1 nM, replicate 2) of the same substance?
Its value is 0.934.

What about the “relative ATPase activity” value ([2]; 1 nM, replicate 3) of the same substance?
The value was 0.99.

What about the “relative ATPase activity” value ([2]; 10 nM, replicate 1) of the same substance?
Its value is 1.095.

What about the “relative ATPase activity” value ([2]; 10 nM, replicate 2) of the same substance?
The value was 1.007.

And the “relative ATPase activity” value ([2]; 10 nM, replicate 3)?
The value was 1.066.

And the “effect on p97 ATPase activity (in words)” value [2]?
Its value is “had no impact on the ATPase activity of p97 in vitro”.
